The values below come from PMC5730846.

A value given as a limit tells only on which side of the number the result lay.

The target in experiment [1] is recombinant Hsp90α (human) (UniProt P07900).
The target in experiment [2] is Tsc1-D-His6 labeled with Texas Red maleimide (UniProt Q92574). The experiment is described as follows: fluorescence polarisation; fluorescence anisotropy; 1 μM Texas Red-labeled Tsc1-D, Hsp90α at the indicated concentrations; 50 mM Tris pH 7.2, 150 mM NaCl, 1 mM TCEP, 4 mM MgCl2; no nucleotide or drug; single-site fit.
Experiment [3] has the same target. The experiment is described as follows: fluorescence polarisation; as a5, Hsp90α pre-incubated with 1 μM GB (ganetespib).

A word on the Kd: it is the free concentration of one partner at which half of the binding sites on the other are occupied at equilibrium, for simple one-to-one binding. Low values mean tighter binding, high ones weaker binding.

Sequence of Tsc1-D-His6 labeled with Texas Red maleimide (Q92574 998-1164): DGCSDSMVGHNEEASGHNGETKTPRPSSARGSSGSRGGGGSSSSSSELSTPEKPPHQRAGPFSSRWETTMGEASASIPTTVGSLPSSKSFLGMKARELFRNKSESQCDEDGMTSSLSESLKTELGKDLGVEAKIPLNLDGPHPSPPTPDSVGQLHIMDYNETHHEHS
Sequence of recombinant Aha1-FLAG (O95433 whole entry): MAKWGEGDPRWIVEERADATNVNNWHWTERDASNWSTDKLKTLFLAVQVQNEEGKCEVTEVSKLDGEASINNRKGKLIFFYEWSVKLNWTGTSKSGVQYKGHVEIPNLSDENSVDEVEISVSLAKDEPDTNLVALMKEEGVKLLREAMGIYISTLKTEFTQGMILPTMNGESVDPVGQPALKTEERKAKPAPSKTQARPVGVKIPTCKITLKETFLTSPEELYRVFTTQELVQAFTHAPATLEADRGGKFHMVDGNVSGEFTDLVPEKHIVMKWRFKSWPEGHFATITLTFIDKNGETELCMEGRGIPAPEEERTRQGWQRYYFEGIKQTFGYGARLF

As to “recombinant Aha1-FLAG (from UniProt O95433 1-338) (natural protein)”, in experiment [1], the Hsp90α ATPase activity in vitro after incubation with 1 μM Tsc1-D-His6 and addition of 1.3 μM Aha1-FLAG (percent of Hsp90α alone) was determined as 100%.
Take “recombinant Hsp90α (from UniProt P07900 1-732) (natural protein)”: the Kd was 480 nM in experiment [2] and more than 5000 nM in experiment [3].
